Results from article PMC9557730 (2022).

B1: N-terminal 3×-FLAG-tagged p52 (WT) [human] / XPB [human (endogenous in HEK293T)] (parent complex)
chain 1: MESTPSRGLNRVHLQCRNLQEFLGGLSPGVLDRLYGHPATCLAVFRELPSLAKNWVMRMLFLEQPLPQAAVALWVKKEFSKAQEESTGLLSGLRIWHTQLLPGGLQGLILNPIFRQNLRIALLGGGKAWSDDTSQLGPDKHARDVPSLDKYAEERWEVVLHFMVGSPSAAVSQDLAQLLSQAGLMKSTEPGEPPCITSAGFQFLLLDTPAQLWYFMLQYLQTAQSRGMDLVEILSFLFQLSFSTLGKDYSVEGMSDSLLNFLQHLREFGLVFQRKRKSRRYYPTRLAINLSSGVSGAGGTVHQPGFIVVETNYRLYAYTESELQIALIALFSEMLYRFPNMVVAQVTRESVQQAIASGITAQQIIHFLRTRAHPVMLKQTPVLPPTITDQIRLWELERDRLRFTEGVLYNQFLSQVDFELLLAHARELGVLVFENSAKRLMVVTPAGHSDVKRFWKRQKHSS
chain 2: MGKRDRADRDKKKSRKRHYEDEEDDEEDAPGNDPQEAVPSAAGKQVDESGTKVDEYGAKDYRLQMPLKDDHTSRPLWVAPDGHIFLEAFSPVYKYAQDFLVAIAEPVCRPTHVHEYKLTAYSLYAAVSVGLQTSDITEYLRKLSKTGVPDGIMQFIKLCTVSYGKVKLVLKHNRYFVESCHPDVIQHLLQDPVIRECRLRNSEGEATELITETFTSKSAISKTAESSGGPSTSRVTDPQGKSDIPMDLFDFYEQMDKDEEEEEETQTVSFEVKQEMIEELQKRCIHLEYPLLAEYDFRNDSVNPDINIDLKPTAVLRPYQEKSLRKMFGNGRARSGVIVLPCGAGKSLVGVTAACTVRKRCLVLGNSAVSVEQWKAQFKMWSTIDDSQICRFTSDAKDKPIGCSVAISTYSMLGHTTKRSWEAERVMEWLKTQEWGLMILDEVHTIPAKMFRRVLTIVQAHCKLGLTATLVREDDKIVDLNFLIGPKLYEANWMELQNNGYIAKVQCAEVWCPMSPEFYREYVAIKTKKRILLYTMNPNKFRACQFLIKFHERRNDKIIVFADNVFALKEYAIRLNKPYIYGPTSQGERMQILQNFKHNPKINTIFISKVGDTSFDLPEANVLIQISSHGGSRRQEAQRLGRVLRAKKGMVAEEYNAFFYSLVSQDTQEMAYSTKRQRFLVDQGYSFKVITKLAGMEEEDLAFSTKEEQQQLLQKVLAATDLDAEEEVVAGEFGSRSSQASRRFGTMSSMSGADDTVYMEYHSSRSKAPSKHVHPLFKRFRK

Variants of: B1
Test: FLAG-IP–Western; HEK293T nuclear extracts; n = 3, biological replicates; read off a plot

Point of comparison: chain 1 MESTPSRGLNRVHLQCRNLQEFLGGLSPGVLDRLYGHPATCLAVFRELPSLAKNWVMRMLFLEQPLPQAAVALWVKKEFSKAQEESTGLLSGLRIWHTQLLPGGLQGLILNPIFRQNLRIALLGGGKAWSDDTSQLGPDKHARDVPSLDKYAEERWEVVLHFMVGSPSAAVSQDLAQLLSQAGLMKSTEPGEPPCITSAGFQFLLLDTPAQLWYFMLQYLQTAQSRGMDLVEILSFLFQLSFSTLGKDYSVEGMSDSLLNFLQHLREFGLVFQRKRKSRRYYPTRLAINLSSGVSGAGGTVHQPGFIVVFTNYRLYAYTESELQIALIALFSEMLYRFPNMVVAQVTRESVQQAIASGITAQQIIHFLRTRAHPVMLKQTPVLPPTITDQIRLWELERDRLRFTEGVLYNQFLSQVDFELLLAHARELGVLVFENSAKRLMVVTPAGHSDVKRFWKRQKHSS [chain 1 E310F], response ~0.01 Normalized Western Signal. Against it:
- chain 1 MESTPSRGLNRVHLQCRNLQEFLGGLSPGVLDRLYGHPATCLAVFRELPSLAKNWVMRMLFLEQPLPQAAVALWVKKEFSKAQEESTGLLSGLRIWHTQLLPGGLQGLILNPIFRQNLRIALLGGGKAWSDDTSQLGPDKHARDVPSLDKYAEERWEVVLHFMVGSPSAAVSQDLAQLLSQAGLMKSTEPGEPPCITSAGFQFLLLDTPAQLWYFMLQYLQTAQSRGMDLVEILSFLFQLSFSTLGKDYSVEGMSDSLLNFLQHLREFGLVFQRKRKSRRYYPTRLAINLSSGVSGAGGTVHQPGFIVVETNYRLAAATESELQIALIALFSEMLYRFPNMVVAQVTRESVQQAIASGITAQQIIHFLRTRAHPVMLKQTPVLPPTITDQIRLWELERDRLRFTEGVLYNQFLSQVDFELLLAHARELGVLVFENSAKRLMVVTPAGHSDVKRFWKRQKHSS [chain 1 Y316A, chain 1 Y318A] — higher, ~0.02 Normalized Western Signal
- chain 1 MESTPSRGLNRVHLQCRNLQEFLGGLSPGVLDRLYGHPATCLAVFRELPSLAKNWVMRMLFLEQPLPQAAVALWVKKEFSKAQEESTGLLSGLRIWHTQLLPGGLQGLILNPIFRQNLRIALLGGGKAWSDDTSQLGPDKHARDVPSLDKYAEERWEVVLHFMVGSPSAAVSQDLAQLLSQAGLMKSTEPGEPPCITSAGFQFLLLDTPAQLWYFMLQYLQTAQSRGMDLVEILSFLFQLSFSTLGKDYSVEGMSDSLLNFLQHLREFGLVFQRKRKSRRYYPTRLAINLSSGVSGAGGTVHQPGFIVVATNYALYAYTESELQIALIALFSEMLYRFPNMVVAQVTRESVQQAIASGITAQQIIHFLRTRAHPVMLKQTPVLPPTITDQIRLWELERDRLRFTEGVLYNQFLSQVDFELLLAHARELGVLVFENSAKRLMVVTPAGHSDVKRFWKRQKHSS [chain 1 E310A, chain 1 R314A] — higher, ~0.13 Normalized Western Signal

Variants of: B1
Test: FLAG-IP LC–MS (iBAQ); HEK293T nuclear extracts; n = 3, biological replicates; read off a plot

Point of comparison: chain 1 MESTPSRGLNRVHLQCRNLQEFLGGLSPGVLDRLYGHPATCLAVFRELPSLAKNWVMRMLFLEQPLPQAAVALWVKKEFSKAQEESTGLLSGLRIWHTQLLPGGLQGLILNPIFRQNLRIALLGGGKAWSDDTSQLGPDKHARDVPSLDKYAEERWEVVLHFMVGSPSAAVSQDLAQLLSQAGLMKSTEPGEPPCITSAGFQFLLLDTPAQLWYFMLQYLQTAQSRGMDLVEILSFLFQLSFSTLGKDYSVEGMSDSLLNFLQHLREFGLVFQRKRKSRRYYPTRLAINLSSGVSGAGGTVHQPGFIVVATNYALYAYTESELQIALIALFSEMLYRFPNMVVAQVTRESVQQAIASGITAQQIIHFLRTRAHPVMLKQTPVLPPTITDQIRLWELERDRLRFTEGVLYNQFLSQVDFELLLAHARELGVLVFENSAKRLMVVTPAGHSDVKRFWKRQKHSS [chain 1 E310A, chain 1 R314A], response ~0.78 Normalized Log2 iBAQ. Against it:
- chain 1 MESTPSRGLNRVHLQCRNLQEFLGGLSPGVLDRLYGHPATCLAVFRELPSLAKNWVMRMLFLEQPLPQAAVALWVKKEFSKAQEESTGLLSGLRIWHTQLLPGGLQGLILNPIFRQNLRIALLGGGKAWSDDTSQLGPDKHARDVPSLDKYAEERWEVVLHFMVGSPSAAVSQDLAQLLSQAGLMKSTEPGEPPCITSAGFQFLLLDTPAQLWYFMLQYLQTAQSRGMDLVEILSFLFQLSFSTLGKDYSVEGMSDSLLNFLQHLREFGLVFQRKRKSRRYYPTRLAINLSSGVSGAGGTVHQPGFIVVFTNYRLYAYTESELQIALIALFSEMLYRFPNMVVAQVTRESVQQAIASGITAQQIIHFLRTRAHPVMLKQTPVLPPTITDQIRLWELERDRLRFTEGVLYNQFLSQVDFELLLAHARELGVLVFENSAKRLMVVTPAGHSDVKRFWKRQKHSS [chain 1 E310F] — lower, ~0.57 Normalized Log2 iBAQ
- chain 1 MESTPSRGLNRVHLQCRNLQEFLGGLSPGVLDRLYGHPATCLAVFRELPSLAKNWVMRMLFLEQPLPQAAVALWVKKEFSKAQEESTGLLSGLRIWHTQLLPGGLQGLILNPIFRQNLRIALLGGGKAWSDDTSQLGPDKHARDVPSLDKYAEERWEVVLHFMVGSPSAAVSQDLAQLLSQAGLMKSTEPGEPPCITSAGFQFLLLDTPAQLWYFMLQYLQTAQSRGMDLVEILSFLFQLSFSTLGKDYSVEGMSDSLLNFLQHLREFGLVFQRKRKSRRYYPTRLAINLSSGVSGAGGTVHQPGFIVVETNYRLAAATESELQIALIALFSEMLYRFPNMVVAQVTRESVQQAIASGITAQQIIHFLRTRAHPVMLKQTPVLPPTITDQIRLWELERDRLRFTEGVLYNQFLSQVDFELLLAHARELGVLVFENSAKRLMVVTPAGHSDVKRFWKRQKHSS [chain 1 Y316A, chain 1 Y318A] — lower, ~0.63 Normalized Log2 iBAQ
